Test results published in the supplement of paper PMC7125110.
± gives the standard error. Fewer inactive variants are shown than the library holds.

B1: glmS ribozyme (parent)
chain: AUAAAAGCGCCAGAACUACAGAAAUGUAGUUGACGAGGAGGAGGUUUAUCGAAUUUUCGGCGGAUGCCUCCAAA

Columns and labels:
Settings in all cases: with glucosamine-6-phosphate
glucosamine-6-phosphate [1] = variants of: B1; assay: self-cleavage kobs at 40 uM GlcN6P; higher = faster cleavage; RNA array
Procedure, shortened: (§1)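 kcat and KM were obtained from weighted Michaelis–Menten fits across concentrations of kobs values. Those came from one- or two-exponential decay fits to per-tile medians normalised to baseline and to non-cleaving reference variants. The variants were barcoded ribozymes transcribed in situ by E. coli RNA polymerase on sequenced MiSeq chips and tracked through a hybridised Cy3 probe at 37 °C, with 40 μM to 10 mM glucosamine-6-phosphate in HEPES/KCl/Mg(OAc)2 buffer flowed in.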

glucosamine-6-phosphate [2] = variants of: B1; assay: self-cleavage kobs at 640 uM GlcN6P; higher = faster cleavage; RNA array
Procedure, shortened: as §1

glucosamine-6-phosphate [3] = variants of: B1; assay: self-cleavage kobs at 2500 uM GlcN6P; higher = faster cleavage; RNA array
Procedure, shortened: as §1

glucosamine-6-phosphate [4] = variants of: B1; assay: self-cleavage kobs at 10000 uM GlcN6P; higher = faster cleavage; RNA array
Procedure, shortened: as §1

glucosamine-6-phosphate [5] = variants of: B1; assay: self-cleavage kobs at 160 uM GlcN6P; higher = faster cleavage; RNA array
Procedure, shortened: as §1

Variant	self-cleavage kobs at 40 uM GlcN6P (glucosamine-6-phosphate [1]) [s⁻¹]	self-cleavage kobs at 640 uM GlcN6P (glucosamine-6-phosphate [2]) [s⁻¹]	self-cleavage kobs at 2500 uM GlcN6P (glucosamine-6-phosphate [3]) [s⁻¹]	self-cleavage kobs at 10000 uM GlcN6P (glucosamine-6-phosphate [4]) [s⁻¹]	self-cleavage kobs at 160 uM GlcN6P (glucosamine-6-phosphate [5]) [s⁻¹]
A6G C11U A33U G60U	< 1e-05	< 1e-05	< 1e-05	< 1e-05	
G7U A14U A48G U56C A64U G66U	< 1e-05			< 1e-05	
U49C G59U	< 1e-05	< 1e-05		< 1e-05	< 1e-05
U31C G66C C67G	< 1e-05				
U47G U69A	5.4e-05 ± 1.7e-05	7.46e-05 ± 1.4e-05	0.000193 ± 3.4e-05	8.6e-05 ± 1.4e-05	7.68e-05 ± 1.4e-05
G7U G37A	< 1e-05			< 1e-05	
G35A A36U G37U A39G U54C C68U	5.13e-05 ± 2.2e-05				
G37U G43U	< 1e-05	< 1e-05		< 1e-05	
C8U C16A	< 1e-05	< 1e-05	< 1e-05	< 1e-05	
C61U A64C	< 1e-05		< 1e-05	< 1e-05	
G44U A52C	< 1e-05	< 1e-05	< 1e-05	< 1e-05	< 1e-05
G35U G41U C70U	< 1e-05			< 1e-05	
A14G C34G	< 1e-05			< 1e-05	< 1e-05
C11U A14C A36G C50A	< 1e-05			< 1e-05	
G35U G63U G66C C67A	< 1e-05			< 1e-05	
G43C U47A	< 1e-05	< 1e-05	< 1e-05		
A6G G60A	< 1e-05	< 1e-05	< 1e-05	< 1e-05	< 1e-05
C8G G9A A39U U47G C68U	< 1e-05				
A6C C11G G29U C34G G51C	< 1e-05				
G38U C61U U69C C71G	6.15e-05 ± 2.4e-05			4.2e-05 ± 1.5e-05	
G41U A42U C50G	< 1e-05	< 1e-05			
G9U A36G A42U G44U	< 1e-05	< 1e-05	< 1e-05		
G32U C34U	< 1e-05	< 1e-05		< 1e-05	< 1e-05
C61U C71A	< 1e-05	< 1e-05	< 1e-05		< 1e-05

Variant	self-cleavage kobs at 40 uM GlcN6P (glucosamine-6-phosphate [1]) [s⁻¹]	self-cleavage kobs at 640 uM GlcN6P (glucosamine-6-phosphate [2]) [s⁻¹]	self-cleavage kobs at 2500 uM GlcN6P (glucosamine-6-phosphate [3]) [s⁻¹]	self-cleavage kobs at 10000 uM GlcN6P (glucosamine-6-phosphate [4]) [s⁻¹]	self-cleavage kobs at 160 uM GlcN6P (glucosamine-6-phosphate [5]) [s⁻¹]
G62A A64G	< 1e-05				
G13C U49C	< 1e-05		< 1e-05	< 1e-05	
G41C C50G	< 1e-05	< 1e-05	< 1e-05	< 1e-05	< 1e-05
A14C G32A A42U U54G	< 1e-05				
G29U C34A	< 1e-05		< 1e-05	< 1e-05	< 1e-05
A12G A14U G38A	< 1e-05			< 1e-05	
A42G U49G C50U U55G G60A	< 1e-05			< 1e-05	
G13C U47C	< 1e-05				< 1e-05
C16G G37A C68U	< 1e-05				
U55C G60U C68U	< 1e-05		< 1e-05		
C10U A36G C71G	< 1e-05			< 1e-05	
G29A C34A	< 1e-05	< 1e-05	< 1e-05	< 1e-05	< 1e-05
C34U G40C G51U C61A G63U	< 1e-05				
G35C G43A	< 1e-05		< 1e-05		< 1e-05
C10G A42C	< 1e-05				
G7C U49G	< 1e-05				< 1e-05
G32U U46C G51U	< 1e-05			< 1e-05	
C11A A53U U57G C71A	0.000108 ± 2.7e-05	0.000248 ± 7.4e-05	0.000141 ± 6.7e-05	9.23e-05 ± 2.2e-05	
A12C G38C A42U	< 1e-05			< 1e-05	
A15G A39C C61U G63C C68G	< 1e-05	< 1e-05			
U30G A42G U55G	0.000185 ± 4.5e-05		0.0026 ± 0.00051	0.00677 ± 0.0014	
G44U C61G	< 1e-05	< 1e-05	< 1e-05	< 1e-05	< 1e-05
G7C G13U A33G U45G	< 1e-05				
A14G G40U C50G	< 1e-05				

Variant	self-cleavage kobs at 40 uM GlcN6P (glucosamine-6-phosphate [1]) [s⁻¹]	self-cleavage kobs at 640 uM GlcN6P (glucosamine-6-phosphate [2]) [s⁻¹]	self-cleavage kobs at 2500 uM GlcN6P (glucosamine-6-phosphate [3]) [s⁻¹]	self-cleavage kobs at 10000 uM GlcN6P (glucosamine-6-phosphate [4]) [s⁻¹]	self-cleavage kobs at 160 uM GlcN6P (glucosamine-6-phosphate [5]) [s⁻¹]
G9U U31G	< 1e-05	< 1e-05	< 1e-05	< 1e-05	< 1e-05
A6U C10A G38U	< 1e-05			< 1e-05	
A12U A36G	< 1e-05				< 1e-05
A6C G44U G51A	< 1e-05			< 1e-05	
A6G C16G	< 1e-05	< 1e-05		3.38e-05 ± 8.1e-06	< 1e-05
U46A U69A	< 1e-05	5.02e-05 ± 2e-05	0.00022 ± 6.2e-05	9.26e-05 ± 1.9e-05	
A36G G51U	< 1e-05	< 1e-05		< 1e-05	
A12U A33U U47G U49G U55G C68U	< 1e-05				
A39G U47G	0.000644 ± 0.0001	0.00207 ± 0.00049	0.0155 ± 0.0035	0.0237 ± 0.0069	
A15G A52G G63U	< 1e-05			< 1e-05	
A33U A36C C58G U69C	4.07e-05 ± 2e-05				7.32e-05 ± 1.9e-05
A6U A33G	< 1e-05	< 1e-05			
A48U A53C	< 1e-05				< 1e-05
C11A G40U G41U G60C U65C	< 1e-05			< 1e-05	
A52C G62C	< 1e-05	< 1e-05	< 1e-05	< 1e-05	< 1e-05
A14U U56C	5.38e-05 ± 1.8e-05	0.000234 ± 4.8e-05	0.000307 ± 7.6e-05	0.00138 ± 0.00027	
G9A U46G G62A	< 1e-05		< 1e-05		
G40C G41A C70U	8.35e-05 ± 2.8e-05		0.000861 ± 0.00023		
A6C G29C A36U C61U	< 1e-05		< 1e-05	< 1e-05	
A14G A36U G43U	< 1e-05			< 1e-05	
C11U C50G U65A C68A	8.61e-05 ± 2.8e-05				
A36U G38C A53C	< 1e-05				
U54A C67G	8.43e-05 ± 1.3e-05	0.000297 ± 5.3e-05	0.000126 ± 2.2e-05	0.00147 ± 0.00055	0.000213 ± 4.1e-05
A6G G38U A39G G51A C68G C70U	7.83e-05 ± 3.2e-05				

Variant	self-cleavage kobs at 40 uM GlcN6P (glucosamine-6-phosphate [1]) [s⁻¹]	self-cleavage kobs at 640 uM GlcN6P (glucosamine-6-phosphate [2]) [s⁻¹]	self-cleavage kobs at 2500 uM GlcN6P (glucosamine-6-phosphate [3]) [s⁻¹]	self-cleavage kobs at 10000 uM GlcN6P (glucosamine-6-phosphate [4]) [s⁻¹]	self-cleavage kobs at 160 uM GlcN6P (glucosamine-6-phosphate [5]) [s⁻¹]
A15U C16A G40A C68U U69A	< 1e-05			< 1e-05	
U57G C70G	3.7e-05 ± 9.8e-06	0.000103 ± 1.5e-05	8.84e-05 ± 1.5e-05	2.33e-05 ± 1e-05	0.00016 ± 3e-05
U56A G62U	< 1e-05	< 1e-05			
C10A U30C	< 1e-05	< 1e-05	< 1e-05	< 1e-05	< 1e-05
A39C G40C U47C	< 1e-05				
G9A C58U C61G	< 1e-05			< 1e-05	
A6U G63U	< 1e-05	< 1e-05	< 1e-05		< 1e-05
A6C G7C	< 1e-05	< 1e-05	< 1e-05	< 1e-05	< 1e-05
C16A C34G	< 1e-05	< 1e-05			
U46G G63C	< 1e-05	< 1e-05	< 1e-05	< 1e-05	< 1e-05
A33C A64C	< 1e-05	< 1e-05	< 1e-05	< 1e-05	< 1e-05
A36G G60A	< 1e-05	< 1e-05			< 1e-05
C61G G63A	< 1e-05			< 1e-05	< 1e-05
A39C G44A G60U C68U	< 1e-05				
G41A U69C	< 1e-05				< 1e-05
G35C U54A	< 1e-05	< 1e-05	< 1e-05	< 1e-05	
G7C A12U G38U G40C U49G U56G	< 1e-05				
C11G A15G A53C	< 1e-05		< 1e-05		
A12G G37C	< 1e-05	< 1e-05		< 1e-05	
G29U U46G C58G C67A	4.15e-05 ± 1.9e-05			5.63e-05 ± 1.4e-05	
G60C C67G	< 1e-05	< 1e-05		< 1e-05	< 1e-05
A14C A15U G51C	< 1e-05				
G7A C34G U56C	< 1e-05				
C16U C71G	6.56e-05 ± 7.6e-06	0.000313 ± 4.5e-05	0.000215 ± 3.4e-05	0.000726 ± 0.0001	0.00019 ± 2.6e-05
